Measured values reported in US20250092426, “CAS ENDONUCLEASES AND RELATED METHODS” (Flagship Pioneering Innovations VII, LLC, published 2025).

Target: T1, CasEnd-6 (synthetic construct)
T1 chain: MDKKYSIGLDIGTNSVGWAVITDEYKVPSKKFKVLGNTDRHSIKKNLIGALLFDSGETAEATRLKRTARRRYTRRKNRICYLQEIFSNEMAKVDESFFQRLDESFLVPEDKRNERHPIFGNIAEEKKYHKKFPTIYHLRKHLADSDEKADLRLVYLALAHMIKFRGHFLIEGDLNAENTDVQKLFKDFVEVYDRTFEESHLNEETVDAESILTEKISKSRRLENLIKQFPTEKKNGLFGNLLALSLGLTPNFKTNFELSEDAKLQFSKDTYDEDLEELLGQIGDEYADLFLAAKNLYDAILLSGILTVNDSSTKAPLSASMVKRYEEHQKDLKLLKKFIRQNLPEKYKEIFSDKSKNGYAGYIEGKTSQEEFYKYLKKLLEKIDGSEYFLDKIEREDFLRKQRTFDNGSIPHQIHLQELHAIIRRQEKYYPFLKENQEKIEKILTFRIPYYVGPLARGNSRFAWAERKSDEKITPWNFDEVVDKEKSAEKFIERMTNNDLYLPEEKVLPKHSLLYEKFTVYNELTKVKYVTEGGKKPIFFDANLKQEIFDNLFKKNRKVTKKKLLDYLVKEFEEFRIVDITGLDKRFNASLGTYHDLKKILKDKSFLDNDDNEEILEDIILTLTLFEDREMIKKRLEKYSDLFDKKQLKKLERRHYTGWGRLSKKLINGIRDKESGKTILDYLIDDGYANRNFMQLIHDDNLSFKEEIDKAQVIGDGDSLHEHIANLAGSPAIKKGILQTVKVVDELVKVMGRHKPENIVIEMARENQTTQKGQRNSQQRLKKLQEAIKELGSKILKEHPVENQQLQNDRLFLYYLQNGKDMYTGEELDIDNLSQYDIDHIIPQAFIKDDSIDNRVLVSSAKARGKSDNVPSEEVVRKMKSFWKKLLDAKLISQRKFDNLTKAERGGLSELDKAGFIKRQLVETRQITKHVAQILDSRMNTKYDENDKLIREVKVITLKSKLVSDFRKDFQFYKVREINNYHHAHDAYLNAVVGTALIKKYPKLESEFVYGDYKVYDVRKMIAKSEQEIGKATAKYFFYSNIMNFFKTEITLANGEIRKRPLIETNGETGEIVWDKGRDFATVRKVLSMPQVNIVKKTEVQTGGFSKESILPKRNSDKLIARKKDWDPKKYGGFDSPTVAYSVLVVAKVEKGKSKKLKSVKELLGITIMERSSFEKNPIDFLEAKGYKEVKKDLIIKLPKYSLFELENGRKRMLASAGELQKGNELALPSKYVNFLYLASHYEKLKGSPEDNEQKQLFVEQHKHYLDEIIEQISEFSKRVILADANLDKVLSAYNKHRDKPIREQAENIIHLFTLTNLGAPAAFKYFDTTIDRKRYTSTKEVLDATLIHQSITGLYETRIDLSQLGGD
Assay: cell_activity; +++; HEK293T; PAM not stated
Procedure, shortened: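 BFP-to-GFP conversion via reverse transcriptase fusion with each Cas endonuclease plus template RNA: 200 ng of each plasmid nucleofected into 250,000 BFP-expressing HEK293T cells (program DS-150). Percent GFP+ cells by flow cytometry at day 4 measured editing.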

B1: BFP-to-GFP template RNA ; BFP reporter protospacer (ssRNA ; dsDNA)
RNA: GCCGAAGCACUGCACGCCGUGUUUUAGAGCUAGAAAUAGCAAGUUAAAAUAAGGCUAGUCCGUUAUCAACUUGAAAAAGUGGCACCGAGUCGGUGCACCCUGACGUACGGCGUGCAGUGCUU
DNA 1: GCCGAAGCACTGCACGCCGT
DNA 2: ACGGCGTGCAGTGCTTCGGC
  activity: ≥ 100 % of reference
